# B1: mouse TIRR (6-211) (domain or fragment, M. musculus)
# chain: GHMVPELKQISREEAMRLGPGWSHSCHAMLYAANPGQLFGRIPMRFSVLMQMRFDGLLGFPGGFVDRRFWSLEDGLNRVLGLGLGGLRLTEADYLSSHLTEGPHRVVAHLYARQLTLEQLHAVEISAVHSRDHGLEVLGLVRVPLYTQKDRVGGFPNFLSNAFVSTAKYQLLFALKVLNMMPSEKLAEALASATEKQKKALEKLLPPSS
# notes: overhang left after TEV cleavage, printed as Gly-His-Met; TIRR (Nudt16L1), M. musculus, residues 6-211; Homodimer by ultracentrifugation and in the crystal; also called Nudt16L1; source: E. coli BL21-Codon PLUS(DE3)-RIPL, purified (Ni-NTA, TEV, heparin, Superdex200); not shown: His6, N-terminal, cleaved
# Experiments:
# mouse TIRR (6-211) [1] = molecular target: B1; assay: ITC; 200-400 μM 53BP1 Tudor domain (wt or mutant) injected into 200 μl of 22-44 μM TIRR or Nudt16 (wt or mutant); 25 °C; 20 mM Tris-HCl pH 7.5, 150 mM NaCl; single-site binding model; conditions: both partners purified
# [2] = molecular target: the molecule itself; assay: AUC; TIRR alone; 20 mM Tris-HCl pH 7.5, 150 mM NaCl; dimer
# mouse TIRR (6-211) [3] = molecular target: B1; assay: AUC; sedimentation velocity, 20 °C; TIRR and 53BP1 Tudor assembled in equal molar ratio; 20 mM Tris-HCl pH 7.5, 150 mM NaCl; conditions: both partners purified
# mouse TIRR (6-211) [4] = molecular target: B1; assay: AUC; sedimentation velocity (20 °C) and sedimentation equilibrium (16 °C); TIRR and 53BP1 Tudor premixed at 2:1 ratio; 20 mM Tris-HCl pH 7.5, 150 mM NaCl; conditions: both partners purified
# human TIRR (6-211) = molecular target: T1, human TIRR (6-211) (H. sapiens, UniProt Q9BRJ7 6-211); assay: ITC; 200-400 μM 53BP1 Tudor domain (wt or mutant) injected into 200 μl of 22-44 μM TIRR or Nudt16 (wt or mutant); 25 °C; 20 mM Tris-HCl pH 7.5, 150 mM NaCl; single-site binding model; conditions: both partners purified
# T1 construct: overhang left after TEV cleavage, printed as Gly-His-Met; TIRR (Nudt16L1), H. sapiens, residues 6-211; also called Nudt16L1; source: E. coli BL21-Codon PLUS(DE3)-RIPL, purified (Ni-NTA, TEV, heparin, Superdex200); not shown: His6, N-terminal, cleaved
# T1 sequence (Q9BRJ7 other isoform, or with tags, fused parts or gaps): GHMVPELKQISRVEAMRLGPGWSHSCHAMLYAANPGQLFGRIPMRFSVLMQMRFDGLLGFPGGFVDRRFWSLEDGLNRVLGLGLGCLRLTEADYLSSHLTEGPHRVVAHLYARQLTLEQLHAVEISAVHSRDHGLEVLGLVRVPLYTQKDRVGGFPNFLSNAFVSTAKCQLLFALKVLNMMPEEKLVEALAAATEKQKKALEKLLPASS
# mouse TIRR (6-211) [5] = molecular target: B1; assay: as above; conditions: both partners purified; remark: listed apart in the source
# mouse TIRR (6-211) [6] = molecular target: B1; assay: as above; conditions: both partners purified; remark: listed apart in the source
Binder,Kd (mouse TIRR (6-211) [6]) [µM],other results
"53BP1 Tudor-UDR domain (1484-1631) (domain or fragment, H. sapiens, overhang left after TEV cleavage, printed as Gly-His-Met; 53BP1 Tudor-UDR domain, H. sapiens, residues 1484-1631; source: E. coli BL21-Codon PLUS(DE3)-RIPL, purified (Ni-NTA, TEV, Superdex200); not shown: His6, N-terminal, cleaved) GHMNSFVGLRVVAKWSSNGYFYSGKITRDVGAGKYKLLFDDGYECDVLGKDILLCDPIPLDTEVTALSEDEYFSAGVVKGHRKESGELYYSIEKEGQRKWYKRMAVILSLEQGNRLREQYGLGPYEAVTPLTKAADISLDNLVEGKRKRRS",,Kd (mouse TIRR (6-211) [1]): 0.9 µM
B1,,stoichiometry N [2]: 2
"53BP1 tandem Tudor domain (1484-1603) (domain or fragment, H. sapiens, overhang left after TEV cleavage, printed as Gly-His-Met; 53BP1 tandem Tudor domain, H. sapiens, residues 1484-1603; also called 53BP1 Tudor; 53BP1-Tudor WT; source: E. coli BL21-Codon PLUS(DE3)-RIPL, purified (Ni-NTA, TEV, Superdex200); not shown: His6, N-terminal, cleaved) GHMNSFVGLRVVAKWSSNGYFYSGKITRDVGAGKYKLLFDDGYECDVLGKDILLCDPIPLDTEVTALSEDEYFSAGVVKGHRKESGELYYSIEKEGQRKWYKRMAVILSLEQGNRLREQYGLG",,stoichiometry N (mouse TIRR (6-211) [3]): 1 53BP1 Tudor per TIRR (printed as 2:2); stoichiometry N (mouse TIRR (6-211) [4]): 0.5 53BP1 Tudor per TIRR (printed as TIRR/53BP1 Tudor 2:1); stoichiometry N (mouse TIRR (6-211) [1]): 1; Kd (human TIRR (6-211)): 0.9 µM; Kd (mouse TIRR (6-211) [5]): 0.9 µM
"53BP1 Tudor Y1523A (domain or fragment, H. sapiens, overhang left after TEV cleavage, printed as Gly-His-Met; 53BP1 tandem Tudor domain, H. sapiens, residues 1484-1603; source: E. coli BL21-Codon PLUS(DE3)-RIPL, purified as the wt protein; not shown: His6, N-terminal, cleaved) GHMNSFVGLRVVAKWSSNGYFYSGKITRDVGAGKYKLLFDDGAECDVLGKDILLCDPIPLDTEVTALSEDEYFSAGVVKGHRKESGELYYSIEKEGQRKWYKRMAVILSLEQGNRLREQYGLG",28.5,
"53BP1 Tudor F1553A (domain or fragment, H. sapiens, overhang left after TEV cleavage, printed as Gly-His-Met; 53BP1 tandem Tudor domain, H. sapiens, residues 1484-1603; source: E. coli BL21-Codon PLUS(DE3)-RIPL, purified as the wt protein; not shown: His6, N-terminal, cleaved) GHMNSFVGLRVVAKWSSNGYFYSGKITRDVGAGKYKLLFDDGYECDVLGKDILLCDPIPLDTEVTALSEDEYASAGVVKGHRKESGELYYSIEKEGQRKWYKRMAVILSLEQGNRLREQYGLG",1.5,
"53BP1 Tudor L1547A (domain or fragment, H. sapiens, overhang left after TEV cleavage, printed as Gly-His-Met; 53BP1 tandem Tudor domain, H. sapiens, residues 1484-1603; source: E. coli BL21-Codon PLUS(DE3)-RIPL, purified as the wt protein; not shown: His6, N-terminal, cleaved) GHMNSFVGLRVVAKWSSNGYFYSGKITRDVGAGKYKLLFDDGYECDVLGKDILLCDPIPLDTEVTAASEDEYFSAGVVKGHRKESGELYYSIEKEGQRKWYKRMAVILSLEQGNRLREQYGLG",4.7,
"53BP1 Tudor L1547G (domain or fragment, H. sapiens, overhang left after TEV cleavage, printed as Gly-His-Met; 53BP1 tandem Tudor domain, H. sapiens, residues 1484-1603; source: E. coli BL21-Codon PLUS(DE3)-RIPL, purified as the wt protein; not shown: His6, N-terminal, cleaved) GHMNSFVGLRVVAKWSSNGYFYSGKITRDVGAGKYKLLFDDGYECDVLGKDILLCDPIPLDTEVTAGSEDEYFSAGVVKGHRKESGELYYSIEKEGQRKWYKRMAVILSLEQGNRLREQYGLG",17.3,
"53BP1 Tudor Y1500A (domain or fragment, H. sapiens, overhang left after TEV cleavage, printed as Gly-His-Met; 53BP1 tandem Tudor domain, H. sapiens, residues 1484-1603; source: E. coli BL21-Codon PLUS(DE3)-RIPL, purified as the wt protein; not shown: His6, N-terminal, cleaved) GHMNSFVGLRVVAKWSSNGAFYSGKITRDVGAGKYKLLFDDGYECDVLGKDILLCDPIPLDTEVTALSEDEYFSAGVVKGHRKESGELYYSIEKEGQRKWYKRMAVILSLEQGNRLREQYGLG",12.7,
"53BP1 Tudor D1521A (domain or fragment, H. sapiens, overhang left after TEV cleavage, printed as Gly-His-Met; 53BP1 tandem Tudor domain, H. sapiens, residues 1484-1603; source: E. coli BL21-Codon PLUS(DE3)-RIPL, purified as the wt protein; not shown: His6, N-terminal, cleaved) GHMNSFVGLRVVAKWSSNGYFYSGKITRDVGAGKYKLLFDAGYECDVLGKDILLCDPIPLDTEVTALSEDEYFSAGVVKGHRKESGELYYSIEKEGQRKWYKRMAVILSLEQGNRLREQYGLG",5.4,
"53BP1 Tudor W1495A (domain or fragment, H. sapiens, overhang left after TEV cleavage, printed as Gly-His-Met; 53BP1 tandem Tudor domain, H. sapiens, residues 1484-1603; source: E. coli BL21-Codon PLUS(DE3)-RIPL, purified as the wt protein; not shown: His6, N-terminal, cleaved) GHMNSFVGLRVVAKASSNGYFYSGKITRDVGAGKYKLLFDDGYECDVLGKDILLCDPIPLDTEVTALSEDEYFSAGVVKGHRKESGELYYSIEKEGQRKWYKRMAVILSLEQGNRLREQYGLG",15.4,

# From paper PMC5974088, “Structural basis for recognition of 53BP1 tandem Tudor domain by TIRR” (Nature Communications, 2018)
